The chains are these.
B1: Lc7b, roadblock ODA light chain (natural protein, Tetrahymena thermophila, UniProt Q22MV2 1-159, looked up)
chain: MIYKTSKEIQKSDQRIIQQRVENSIINNQIYQKSLKRKTSKRKVRHQANKKNFQKEMSEVEDTLNRIKTHKTVLGYLIVNSEGGVVRGAFKDEEESKNIANSIPLLTKKARSVVRDLDPTNDLVFLRIQTKLNEIMVAPDDEFSLIVIQTKGEKRDEND
B8: Dic2, ODA intermediate chain (natural protein, Tetrahymena thermophila, UniProt I7M008 1-667, looked up)
chain: MPPKQTKVVASRKTVMPISRAGRAQIRRKDSNTQNNMNDQGMEDEEIDQQREGMKNQYEQLTAQELNEDMPSKMLEPKNPQAPKNITVYDYYTRKFKTDELVDQMIVHFSMDGDYIWKESNEYKTQEEIRDTKKALIKEAMRKQESEEPGANHDEEAIKQTLRNKFNYNTRECQTINPSIRERGVSTEPPPSDTICGNITQWEIFDAYYAEIMKDHQIENKKKKEVDQDKKQDQSMYSTSFKRCCKIMERMVVQNDQEDKYHDYRYYWSQGDNLEAGKNEGHLLPIWRFSNEKQRKKNVTSICWNPLYPDLFAVSLGSYDFTKQRMGLICLYSLKNTTHPEYAFNCEAGVMCLDFHPKSAALLAVGLYDGTVLVYDIRNKHKKPIYQSTVRNQKHTDPVWQVKWNPDTSKNYNFYSISSDGRVMNWILMKNKLEPEEVILLRLVGKNEEESTLIGLACGLCFDFNKFEPHIFLVGTEEGKIHKCSRAYSGQYQETYNGHLLAVYKVKWNNFHPRTFISASADWTVRIWDSKYTSQIICFDLSMMVVDAVWAPYSSTVFACATMDKVQVYDLNVDKLNKLAEQKIVKQPKLTNLSFNYKDPILLVGDSHGGVTLVKLSPNLCKSGPEIKQTEDKKAMEEFKNVKIEDYEREKMENLLAVVSKWEREDA

Assay in all cases: cryo-EM structure
Assay [1] has as its target T1, Dic3, ODA intermediate chain (Tetrahymena thermophila, UniProt Q23FU1 1-670).
T1 sequence (looked up): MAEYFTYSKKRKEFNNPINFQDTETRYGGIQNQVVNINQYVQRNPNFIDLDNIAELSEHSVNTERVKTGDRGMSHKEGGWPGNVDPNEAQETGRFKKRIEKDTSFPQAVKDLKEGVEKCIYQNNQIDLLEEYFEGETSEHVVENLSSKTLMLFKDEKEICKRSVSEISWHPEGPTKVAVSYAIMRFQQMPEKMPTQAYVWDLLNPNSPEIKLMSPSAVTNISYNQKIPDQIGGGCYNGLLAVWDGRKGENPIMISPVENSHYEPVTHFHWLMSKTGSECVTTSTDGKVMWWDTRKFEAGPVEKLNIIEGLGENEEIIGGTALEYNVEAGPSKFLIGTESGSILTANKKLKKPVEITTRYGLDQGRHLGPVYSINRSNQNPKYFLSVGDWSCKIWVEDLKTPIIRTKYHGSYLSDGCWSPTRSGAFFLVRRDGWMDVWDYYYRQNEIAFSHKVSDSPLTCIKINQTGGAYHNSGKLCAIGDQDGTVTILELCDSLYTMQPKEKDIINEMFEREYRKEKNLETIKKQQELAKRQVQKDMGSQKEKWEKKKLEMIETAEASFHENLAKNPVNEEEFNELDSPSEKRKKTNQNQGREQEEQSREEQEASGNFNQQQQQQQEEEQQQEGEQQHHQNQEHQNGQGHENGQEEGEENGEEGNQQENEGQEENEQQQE

Assay [2] concerns the target B8.
Assay [3] addresses T2, Shulin (Q22YU3), recombinant full-length, C-terminal 2xStrep (Tetrahymena thermophila, UniProt Q22YU3 1-1200).
T2 sequence (looked up): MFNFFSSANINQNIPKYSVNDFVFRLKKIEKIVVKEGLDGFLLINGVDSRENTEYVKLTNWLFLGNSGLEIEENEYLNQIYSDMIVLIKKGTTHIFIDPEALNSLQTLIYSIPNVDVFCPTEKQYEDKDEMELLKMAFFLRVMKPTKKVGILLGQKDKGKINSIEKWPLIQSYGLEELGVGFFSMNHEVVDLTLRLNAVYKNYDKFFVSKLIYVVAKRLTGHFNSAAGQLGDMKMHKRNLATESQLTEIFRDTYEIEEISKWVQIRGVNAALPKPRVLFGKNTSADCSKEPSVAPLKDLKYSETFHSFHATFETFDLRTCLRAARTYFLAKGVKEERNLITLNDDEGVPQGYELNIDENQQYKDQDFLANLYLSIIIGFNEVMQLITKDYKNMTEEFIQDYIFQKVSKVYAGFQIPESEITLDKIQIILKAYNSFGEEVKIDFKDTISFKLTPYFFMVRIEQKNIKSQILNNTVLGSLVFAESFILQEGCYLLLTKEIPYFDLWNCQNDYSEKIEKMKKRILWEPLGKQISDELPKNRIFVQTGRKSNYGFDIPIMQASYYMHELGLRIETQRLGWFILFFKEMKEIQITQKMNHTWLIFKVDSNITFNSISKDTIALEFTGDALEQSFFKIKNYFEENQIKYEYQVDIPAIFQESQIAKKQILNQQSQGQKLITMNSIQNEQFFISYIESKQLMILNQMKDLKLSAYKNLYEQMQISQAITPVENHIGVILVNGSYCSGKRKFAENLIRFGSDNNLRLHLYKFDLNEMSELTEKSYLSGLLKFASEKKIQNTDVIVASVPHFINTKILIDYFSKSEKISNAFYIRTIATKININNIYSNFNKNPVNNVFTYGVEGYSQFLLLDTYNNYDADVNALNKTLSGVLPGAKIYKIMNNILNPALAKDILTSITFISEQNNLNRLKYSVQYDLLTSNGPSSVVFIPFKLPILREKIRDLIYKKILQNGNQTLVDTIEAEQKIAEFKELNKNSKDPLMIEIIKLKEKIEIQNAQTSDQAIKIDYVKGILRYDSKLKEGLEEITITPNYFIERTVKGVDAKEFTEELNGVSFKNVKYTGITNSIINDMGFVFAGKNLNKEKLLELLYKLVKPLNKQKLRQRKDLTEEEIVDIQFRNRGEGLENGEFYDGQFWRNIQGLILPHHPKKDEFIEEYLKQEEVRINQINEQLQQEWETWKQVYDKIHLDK

In assay [4] the target is B1.

The values that follow come from article PMC7116892 (Science (New York, N.Y.), 2021).

As to B1, the binding result in assay [1] and in assay [2] was “binds” in each case.

B2: Lc8d, ODA light chain (natural protein, Tetrahymena thermophila, UniProt Q24CE5 1-87, looked up)
chain: MNHEPEVKATDMEEDMIKRVKEIAINAVKEYKQEKQIAHYIKYEFDKIDGYGWNCIVGRNFGSHIIHQTKKYIFFKINELCLLLWKA
For the molecule B2, the binding result in assay [1], in assay [2] and in assay [3] was “binds” each time.

B3: Lc8, ODA light chain (natural protein, Tetrahymena thermophila, UniProt W7XJB1 1-111, looked up)
chain: MSDSDSDEGRVVEEPLPPHIIRFNDMAQHLLKKVIRQADVLIKENPQGLEKDIALNLVKFVKSQPEFKIGDGEWQCIIGKNFGCSLTFDANVLAFFDLLPSRKSILLFKSG
Consider B3, for which the binding result in assay [1] and in assay [2] was “binds” throughout.

B4: Lc8e, ODA light chain (natural protein, Tetrahymena thermophila, UniProt Q24DI9 1-93, looked up)
chain: MGDHANEQIIDMPENSEMKSMKNDAFSQAKFAVENYKFENKISSHIKKFFDEKYGPNWHCVVGKHFNAYVSYDSKNFIFFYEGQLAILLYRKG
Take B4: the binding result in assay [1], in assay [2] and in assay [3] was “binds” in each case.

B5: Lc8f (unnamed Lc8-like protein, UniProt ID Q22R86), ODA light chain (natural protein, Tetrahymena thermophila, UniProt Q22R86 1-111, looked up)
chain: MASNQQQKEDPKEQQQQYKTFMGARVLWPPECADDILEGAIRETQDALKKFEIAREGQKIAEHLKKYMDDHFDPYWHVFFGKNFGCQAVHNKNRFIYFYIEKTAFLMYQTQ
For the molecule B5, the binding result in assay [1] and in assay [2] was “binds” each time.

B6: Lc9, Tctex-like ODA light chain (natural protein, Tetrahymena thermophila, UniProt A4VEB3 1-117, looked up)
chain: MGDTDKEYISEEVQKAIDDSVKQVFGIKDDSSQVTITYNKDKVNLWTQQIIDYTIRGLNKLGKHFKYCVTAILQQTNHAGISVQITAYQDTNTDGSLIQCYEINDIYAIVSVFAMAV
As to B6, the binding result in assay [1] and in assay [2] was “binds” in each case.

B7: Lc7, roadblock ODA light chain (natural protein, Tetrahymena thermophila, UniProt I7MHB1 1-133, looked up)
chain: MAQDINADDQLKQLSALEGANGYVIFNESGIPLKRHEKSISHEKAVHIAALVSDLWNVSKKVIQRDLKTPENDIEVIRLRTKHSYEYIITQSGDFTMLAIQLCGKAIEEAKKAAAAAAAAAVVQEENKEKEKK
For B7, the binding result in assay [4], in assay [1] and in assay [2] was “binds” in each case.
Take B8: the binding result in assay [3] was “binds”.
